Test results: publication PMC10625565

Target: GST-PpROP4CA (G15V)
Assay: pull-down (MBP pull-down, anti-GST western blot, band quantification)
Settings: three replicates; parent: est. 0.17; read off a plot

MBP-PpREN (wild type) R204L
other: Protein ratio: 0.17
